Molecular target: the molecule itself
Assay: AUC

B1: nontagged Atg38 (recombinant) (natural protein, budding yeast, UniProt Q05789 1-226, looked up)
chain: MSTLAEVYTIIEDAEQECRKGDFTNAKAKYQEAIEVLGPQNENLSQNKLSSDVTQAIDLLKQDITAKIQELELLIEKQSSEENNIGMVNNNMLIGSVILNNKSPINGISNARNWDNPAYQDTLSPINDPLLMSILNRLQFNLNNDIQLKTEGGKNSKNSEMKINLRLEQFKKELVLYEQKKFKEYGMKIDEITKENKKLANEIGRLRERWDSLVESAKQRRDKQKN
With B1 the “stoichiometry N” value was 2.

— article PMC3812978 (The Journal of Cell Biology, 2013)
